Test results published in article PMC5382266 (Nature Communications, 2017).
Numbering of substitutions follows the chain as printed.

T1: TSLPR^N47Q (human, UniProt Q9HC73-1 23-221, N47Q)
T1 construct: signal peptide in the construct; extracellular fragment of human TSLPR, NP_071431.2, residues 1-221, N-glycosylation mutant N47Q; also called EndoH-treated TSLPR^N47Q
T1 sequence (looked up): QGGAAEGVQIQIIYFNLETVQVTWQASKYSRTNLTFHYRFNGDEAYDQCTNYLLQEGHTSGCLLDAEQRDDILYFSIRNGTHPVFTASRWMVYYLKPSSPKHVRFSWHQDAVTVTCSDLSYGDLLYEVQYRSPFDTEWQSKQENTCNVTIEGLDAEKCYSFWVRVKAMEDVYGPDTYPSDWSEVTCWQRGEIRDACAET

T2: full-length HA-tagged human IL-7Rα (human, UniProt P16871-1 21-459)
T2 sequence (looked up): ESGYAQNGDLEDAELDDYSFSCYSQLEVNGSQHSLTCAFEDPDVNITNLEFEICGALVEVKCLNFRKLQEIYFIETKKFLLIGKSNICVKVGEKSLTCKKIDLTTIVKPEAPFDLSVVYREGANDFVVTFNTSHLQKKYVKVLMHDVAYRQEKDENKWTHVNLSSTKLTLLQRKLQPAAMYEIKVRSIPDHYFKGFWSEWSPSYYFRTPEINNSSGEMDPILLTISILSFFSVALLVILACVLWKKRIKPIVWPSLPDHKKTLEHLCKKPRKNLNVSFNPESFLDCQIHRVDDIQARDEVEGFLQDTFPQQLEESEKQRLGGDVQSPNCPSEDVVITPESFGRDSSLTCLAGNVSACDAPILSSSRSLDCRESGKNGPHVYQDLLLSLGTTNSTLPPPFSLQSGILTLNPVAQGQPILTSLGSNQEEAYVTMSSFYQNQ

B1: TSLP-Arg149Ser (ligand, human, UniProt Q969D9-1 29-159, looked up)
chain: YDFTNCDFEKIKAAYLSTISKDLITYMSGTKSTEFNNTVSCSNRPHCLTEIQSLTFNPTAGCASLAKEMFAMKTKAALAIWCPGYSETQINATQAMKKARKSKVTTNKCLEQVSQLQGLWSRFNRPLLKQQ
B2: TSLP-Arg149Ser/Arg150Ser (ligand, human, UniProt Q969D9-1 29-159, looked up)
chain: B1 chain with R122S
B3: TSLP-Arg150Ser (ligand, human, UniProt Q969D9-1 29-159, looked up)
chain: B1 chain with S121R, R122S
B4: TSLP-Arg153Ser (ligand, human, UniProt Q969D9-1 29-159, looked up)
chain: B1 chain with S121R, R125S
B5: TSLP^Δ127–131 (ligand, human, UniProt Q969D9-1 29-159, looked up)
chain: YDFTNCDFEKIKAAYLSTISKDLITYMSGTKSTEFNNTVSCSNRPHCLTEIQSLTFNPTAGCASLAKEMFAMKTKAALAIWCPGYSETQINATQAMKKVTTNKCLEQVSQLQGLWRRFNRPLLKQQ
notes: His tag removed with thrombin; also called non-glycosylated human TSLP lacking a basic cassette; not shown: His6, N-terminal, cleaved
B6: soluble TSLPR ectodomain (domain or fragment, human, UniProt Q9HC73-1 23-221, looked up)
chain: T1 sequence (looked up) with Q25N
B7: TSLPR-Asp157Ala/Glu159Ala (receptor)
chain: QGGAAEGVQIQIIYFNLETVQVTWNASKYSRTNLTFHYRFNGDEAYDQCTNYLLQEGHTSGCLLDAEQRDDILYFSIRNGTHPVFTASRWMVYYLKPSSPKHVRFSWHQDAVTVTCSDLSYGDLLYEVQYRSPFATAWQSKQENTCNVTIEGLDAEKCYSFWVRVKAMEDVYGPDTYPSDWSEVTCWQRGEIRDACAETPTPPKPKLSKFILISSLAILLMVSLLLLSLWKLWRVKKFLIPSVPDPKSIFPGLFEIHQGNFQEWITDTQNVAHLHKMAGAEQESGPEEPLVVQLAKTEAESPRMLDPQTEEKEASGGSLQLPHQPLQGGDVVTIGGFTFVMNDRSYVAL
B8: full-length FLAG-tagged human TSLPR (receptor, UniProt Q9HC73-1 23-371, looked up)
chain: B7 chain with A135D, A137E
B9: TSLPR-Phe156Ala/Asp157Ala/Glu159Ala (receptor)
chain: B7 chain with F134A
B10: TSLPR-Asp176Ala/Glu178Ala/Lys179Ala (receptor)
chain: B7 chain with A135D, A137E, D154A, E156A, K157A
B11: TSLP-trap1 (other, human)
chain: QGGAAEGVQIQIIYFNLETVQVTWNASKYSRTNLTFHYRFNGDEAYDQCTNYLLQEGHTSGCLLDAEQRDDILYFSIRNGTHPVFTASRWMVYYLKPSSPKHVRFSWHQDAVTVTCSDLSYGDLLYEVQYRSPFDTEWQSKQENTCNVTIEGLDAEKCYSFWVRVKAMEDVYGPDTYPSDWSEVTCWQRGEIRDACAETPTPPKPKLSKGGSGGSGGSGGSGGSGGSGGSGGSGGSGGSGGSGGSGGSGGSGGSGGSGGSGGSGGSGGSESGYAQNGDLEDAELDDYSFSCYSQLEVNGSQHSLTCAFEDPDVNITNLEFEICGALVEVKCLNFRKLQEIYFIETKKFLLIGKSNICVKVGEKSLTCKKIDLTTIVKPEAPFDLSVVYREGANDFVVTFNTSHLQKKYVKVLMHDVAYRQEKDENKWTHVNLSSTKLTLLQRKLQPAAMYEIKVRSIPDHYFKGFWSEWSPSYYFRTPEINNSSGEMD
notes: signal peptide in the construct; extracellular domain of human TSLPR, NP_071431.2, residues 1-231 (native secretion signal of TSLPR used); flexible (Gly-Gly-Ser)20 linker, written out from the printed formula; extracellular part of human IL-7Rα, NP_002176.2, residues 21-239; also called Human TSLP-trap1; hTSLPtrap1
B12: refolded IL-7Rα ectodomain (domain or fragment, human, UniProt P16871-1 21-239, looked up)
chain: ESGYAQNGDLEDAELDDYSFSCYSQLEVNGSQHSLTCAFEDPDVNITNLEFEICGALVEVKCLNFRKLQEIYFIETKKFLLIGKSNICVKVGEKSLTCKKIDLTTIVKPEAPFDLSVVYREGANDFVVTFNTSHLQKKYVKVLMHDVAYRQEKDENKWTHVNLSSTKLTLLQRKLQPAAMYEIKVRSIPDHYFKGFWSEWSPSYYFRTPEINNSSGEMD
notes: extracellular fragment of human IL-7Rα, NP_002176.2, residues 21-239; His tag removed with thrombin; also called IL-7Rα ectodomain (E. coli); not shown: His6, N-terminal, cleaved
B13: soluble IL-7Rα ectodomain (domain or fragment, human, UniProt P16871-1 21-239, looked up)
chain: B12 chain
notes: signal peptide in the construct; extracellular fragment of human IL-7Rα, NP_002176.2, residues 1-239; also called interleukin 7 receptor α-chain
B14: TSLP-trap2 (other, human)
chain: ESGYAQNGDLEDAELDDYSFSCYSQLEVNGSQHSLTCAFEDPDVNITNLEFEICGALVEVKCLNFRKLQEIYFIETKKFLLIGKSNICVKVGEKSLTCKKIDLTTIVKPEAPFDLSVVYREGANDFVVTFNTSHLQKKYVKVLMHDVAYRQEKDENKWTHVNLSSTKLTLLQRKLQPAAMYEIKVRSIPDHYFKGFWSEWSPSYYFRTPEINNSSGEMDGGSGGSGGSGGSGGSGGSGGSGGSGGSGGSGGSGGSGGSGGSGGSGGSGGSGGSGGSGGSQGGAAEGVQIQIIYFNLETVQVTWNASKYSRTNLTFHYRFNGDEAYDQCTNYLLQEGHTSGCLLDAEQRDDILYFSIRNGTHPVFTASRWMVYYLKPSSPKHVRFSWHQDAVTVTCSDLSYGDLLYEVQYRSPFDTEWQSKQENTCNVTIEGLDAEKCYSFWVRVKAMEDVYGPDTYPSDWSEVTCWQRGEIRDACAETPTPPKPKLSK

Tests used:
[1] = molecular target: B8; test: cell-based or functional assay
TSLPR^N47Q = molecular target: T1, TSLPR^N47Q; test: SEC-MALS; Superdex 200 Increase 10/300 GL, HBS pH 7.4, 0.5 ml/min, 25 °C; glycan-minimized ternary complex; details: both partners purified
[2] = molecular target: wild type TSLP (TSLP^R127A/R130S) (human, UniProt Q969D9-1 29-159, R127A | R130S); test: cell-based or functional assay
[3] = molecular target: T2, full-length HA-tagged human IL-7Rα
[4] = molecular target: T2, full-length HA-tagged human IL-7Rα; test: cell-based or functional assay
[5] = molecular target: T3, biotinylated TSLP^R127A/R130S (human, UniProt Q969D9-1 29-159, R127A | R130S, biotin, C-terminal (in vivo biotinylation)); test: BLI; biotinylated TSLP^R127A/R130S on streptavidin biosensors, analyte in solution; PBS with 0.01% BSA and 0.002% Tween 20, 25 °C, Octet RED96; 1:1 model; details: both partners purified
T3 construct: signal peptide in the construct; glycosylated, mammalian-derived; also called thymic stromal lymphopoietin; source: HEK293T, co-transfected with pDisplay-BirA-ER, purified from conditioned medium (IMAC, SEC); not shown: Avi tag (from the vector pHL-AVITAG), C-terminal, kept

[6] = molecular target: T4, binary TSLP^Δ127–131:TSLPR^N47Q complex (human, UniProt Q969D9-1 29-159; Q9HC73-1 23-221, Δ127–131 | N47Q); test: SEC-MALS; Superdex 200 Increase 10/300 GL, HBS pH 7.4, 0.5 ml/min, 25 °C; glycan-minimized ternary complex; details: both partners purified
T4 construct: as the chain of m8; signal peptide in the construct; extracellular fragment of human TSLPR, NP_071431.2, residues 1-221, N47Q; as the chain of m9; also called TSLP:TSLPR^N47Q complex; not shown: His6, N-terminal, cleaved; copies: 1 + 1

[7] = molecular target: T5, preformed TSLP:TSLPR binary complex (human, UniProt Q969D9-1 29-159; Q9HC73-1 23-221, R127A | R130S, biotin, C-terminal (in vivo biotinylation)); test: BLI; TSLP-loaded biosensors incubated with 320 nM TSLPR, which was also in the assay buffer and all IL-7Rα samples; PBS with 0.01% BSA and 0.002% Tween 20, 25 °C; 1:1 model; details: both partners purified
T5 construct: signal peptide in the construct; as the chain of m1; extracellular fragment of human TSLPR, NP_071431.2, residues 1-221; as the chain of m2; 320 nM TSLPR was kept in the kinetics buffer and in all IL-7Rα samples; also called TSLP:TSLPR complex; not shown: Avi tag (from the vector pHL-AVITAG), C-terminal, kept

Binder: B1
EC50 of STAT5 activity (luciferase reporter) induced by TSLP in HEK293T cells expressing WT TSLPR and IL-7Rα [1]: 0.0028 nM

Binder: B2
EC50 of STAT5 activity (luciferase reporter) induced by TSLP in HEK293T cells expressing WT TSLPR and IL-7Rα [1]: 0.1 nM

Binder: B3
EC50 of STAT5 activity (luciferase reporter) induced by TSLP in HEK293T cells expressing WT TSLPR and IL-7Rα [1]: 0.0095 nM

Binder: B4
EC50 of STAT5 activity (luciferase reporter) induced by TSLP in HEK293T cells expressing WT TSLPR and IL-7Rα [1]: 0.019 nM

Binder: B5
stoichiometry N (TSLPR^N47Q): 1

Binder: B6
IC50 of inhibition of STAT5 activity induced by 10 pM TSLP by an equimolar mixture of the soluble TSLPR and IL-7Rα ectodomains [2]: 49 nM

Binder: B7
EC50 of TSLP-induced STAT5 activity in cells expressing mutant TSLPR and IL-7Rα [3]: 0.085 nM

Binder: B8
EC50 of TSLP-induced STAT5 activity in cells expressing WT TSLPR and IL-7Rα (control of the site III mutants) [4]: 0.011 nM

Binder: B9
EC50 of TSLP-induced STAT5 activity in cells expressing mutant TSLPR and IL-7Rα [3]: 0.4 nM

Binder: B10
EC50 of TSLP-induced STAT5 activity in cells expressing mutant TSLPR and IL-7Rα [3]: 0.049 nM

Binder: B11
Kd [5]: 0.12 nM
koff [5]: 2e-05 s⁻¹
IC50 of inhibition of STAT5 activity induced by 10 pM TSLP in HEK293T cells expressing TSLPR and IL-7Rα [2]: 67 pM

Binder: B12
stoichiometry N [6]: 1

Binder: B13
Kd [7]: 29 nM
koff [7]: 0.0036 s⁻¹
kon [7]: 123000 M⁻¹ s⁻¹

Binder: B14
IC50 of inhibition of STAT5 activity induced by 10 pM TSLP in HEK293T cells expressing TSLPR and IL-7Rα [2]: 44 pM
